IntAct's records for PubMed 29039417

B1: BBSome complex member BBS2 (Homo sapiens), Q9BXC9 (parent)
chain: MLLPVFTLKLRHKISPRMVAIGRYDGTHPCLAAATQTGKVFIHNPHTRNQHVSASRVFQSPLESDVSLLSINQAVSCLTAGVLNPELGYDALLVGTQTNLLAYDVYNNSDLFYREVADGANAIVLGTLGDISSPLAIIGGNCALQGFNHEGSDLFWTVTGDNVNSLALCDFDGDGKKELLVGSEDFDIRVFKEDEIVAEMTETEIVTSLCPMYGSRFGYALSNGTVGVYDKTSRYWRIKSKNHAMSIHAFDLNSDGVNELITGWSNGKVDARSDRTGEVIFKDNFSSAIAGVVEGDYRMDGHIQLICCSVDGEIRGYLPGTAEMRGNLMDTSAEQDLIRELSQKKQNLLLELRNYEENAKAELASPLNEADGHRGIIPANTRLHTTLSVSLGNETQTAHTELRISTSNDTIIRAVLIFAEGIFTGESHVVHPSIHNLSSSICIPIVPPKDVPVDLHLKAFVGYRSSTQFHVFESTRQLPRFSMYALTSLDPASEPISYVNFTIAERAQRVVVWLGQNFLLPEDTHIQNAPFQVCFTSLRNGGHLHIKIKLSGEITINTDDIDLAGDIIQSMASFFAIEDLQVEADFPVYFEELRKVLVKVDEYHSVHQKLSADMADHSNLIRSLLVGAEDARLMRDMKTMKSRYMELYDLNRDLLNGYKIRCNNHTELLGNLKAVNQAIQRAGRLRVGKPKNQVITACRDAIRSNNINTLFKIMRVGTASS
partner: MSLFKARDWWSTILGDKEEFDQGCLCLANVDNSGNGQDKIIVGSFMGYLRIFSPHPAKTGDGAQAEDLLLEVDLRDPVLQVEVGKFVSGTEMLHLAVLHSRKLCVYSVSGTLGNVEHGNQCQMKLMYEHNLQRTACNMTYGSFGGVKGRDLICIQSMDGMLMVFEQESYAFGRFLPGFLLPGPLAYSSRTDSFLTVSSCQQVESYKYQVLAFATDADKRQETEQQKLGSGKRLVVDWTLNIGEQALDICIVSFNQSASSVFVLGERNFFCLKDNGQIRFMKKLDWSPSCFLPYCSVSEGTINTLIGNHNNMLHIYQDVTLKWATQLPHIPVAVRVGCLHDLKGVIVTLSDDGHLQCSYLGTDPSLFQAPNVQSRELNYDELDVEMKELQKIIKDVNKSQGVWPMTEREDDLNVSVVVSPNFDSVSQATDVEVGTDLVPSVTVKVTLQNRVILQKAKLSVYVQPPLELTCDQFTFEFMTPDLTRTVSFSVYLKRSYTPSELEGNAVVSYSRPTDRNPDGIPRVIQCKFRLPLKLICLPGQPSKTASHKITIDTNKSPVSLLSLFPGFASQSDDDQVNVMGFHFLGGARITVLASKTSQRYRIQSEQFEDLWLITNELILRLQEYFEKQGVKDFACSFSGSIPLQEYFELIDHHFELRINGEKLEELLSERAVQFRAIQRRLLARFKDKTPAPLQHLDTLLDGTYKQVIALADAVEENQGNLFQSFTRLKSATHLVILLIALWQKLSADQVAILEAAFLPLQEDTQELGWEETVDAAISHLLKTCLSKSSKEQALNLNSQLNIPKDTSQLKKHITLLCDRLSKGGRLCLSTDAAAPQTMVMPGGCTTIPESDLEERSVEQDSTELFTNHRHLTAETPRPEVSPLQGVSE

Variants of: B1
Details: with pthb1_human BBS9, Q3SYG4

Variant	effect of a mutation on the interaction
K599E	with no effect
L383E	with no effect
L349A	with no effect
F469E	disrupting interaction strength
I496A	with no effect
N705E	with no effect
P452E	with no effect
T696A	with no effect
N368A	with no effect
V471E	with no effect
T400E	with no effect
N354E	with no effect
N354K	with no effect
L416E	with no effect
N663K	with no effect
R353A	with no effect
V598K	with no effect
S439N	disrupting interaction strength
T397A	with no effect
I411K	with no effect
Q527E	with no effect
L337K	with no effect
L685E	with no effect

Variant	effect of a mutation on the interaction
S618A	with no effect
V510A	with no effect
Q468E	with no effect
V512A	with no effect
I621K	with no effect
K691E	with no effect
V453K	disrupting interaction strength
Q608A	with no effect
G670A	with no effect
V675E	with no effect
P366E	with no effect
L544K	with no effect
S497E	with no effect
H431R	disrupting interaction strength
I554A	with no effect
I503E	with no effect
V389E	disrupting interaction strength
C534K	with no effect
M645K	with no effect
H428A	with no effect
G326K	with no effect
L550K	with no effect
D616A	with no effect

Variant	effect of a mutation on the interaction
P479E	disrupting interaction strength
E394A	with no effect
G683K	with no effect
L538K	with no effect
I707A	with no effect
M571A	with no effect
P587E	with no effect
I702K	with no effect
I702A	with no effect
Y355A	with no effect
L519A	with no effect
L597K	with no effect
R374E	with no effect
T475E	with no effect
K673E	with no effect
L348A	with no effect
L348E	with no effect
S573E	with no effect
G688E	with no effect
E583A	with no effect
V451E	with no effect
L514K	disrupting interaction strength
S551A	with no effect

Variant	effect of a mutation on the interaction
D566E	with no effect
D566K	with no effect
S427E	with no effect
A379K	with no effect
A504K	with no effect
F518E	disrupting interaction strength
L352E	with no effect
V716K	with no effect
Y603K	with no effect
R339K	with no effect
S537A	with no effect
L391E	with no effect
F535E	disrupting interaction strength
R594A	with no effect
V600K	with no effect
P690E	with no effect
P447K	with no effect
T536K	with no effect
N706E	with no effect
S388E	with no effect
